# From the supplement of paper PMC9732359
# ± gives the uncertainty stated by the source.
# Assay: protein stability index of a GFP-peptide fusion (yeast GPS) (PSI 1-4); higher = more stable; sorted into four equal gates, so the index is relative within each strain
# Method in brief: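 Peptides tiling yeast proteins in 17-residue segments were fused downstream of GFP, with Cherry expressed from the same plasmid. As a pooled library in yeast, mid-log cultures grown in leucine-free medium were sorted into four equal gates by GFP/Cherry fluorescence ratio. Gate plasmids were PCR-amplified and Illumina-sequenced, and barcodes linked reads to strains. Each peptide received a protein stability index equal to the sum of each gate's read frequency times its gate number.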
Sequence,protein stability index (doa10∆),protein stability index (pdr5∆),protein stability index (san1∆),protein stability index (ubr1∆)
TAQKYPIYTGDGWVKLT [YMR153W/NUP53],1.63 ± 0.062,1.77 ± 0.06,1.62 ± 0.1,1.21 ± 0.041
TARINNRRLFKKCIDFF [RRI2],2 ± 0.082,2.18 ± 0.059,1.91 ± 0.11,2.18 ± 0.054
TARVMGGLKNGVLYQGN [DIS3],3.19 ± 0.069,3.3 ± 0.071,3.06 ± 0.047,3.13 ± 0.056
TATASLGVIHKGNLLEG [RPN2],2.96 ± 0.16,1.84 ± 0.082,1.98 ± 0.16,2.72 ± 0.081
TCQILESGEDEAEFSLR [RRP46],,2.62 ± 0.28,,3.46 ± 0.19
TDIKQFLELTRRADVKT [RPL38],2.95 ± 0.17,3.29 ± 0.17,,
TDKIGRSVPAPGKGILT [FAS2],2.95 ± 0.17,3.16 ± 0.13,2.79 ± 0.2,3.21 ± 0.12
TDKKAFLGALKYLPHAI [PRP8],2.94 ± 0.12,2.92 ± 0.097,3.19 ± 0.072,2.96 ± 0.054
TDKSNSPIGFTNSPQIS [SMC2],3.02 ± 0.05,3.16 ± 0.054,3.03 ± 0.043,3.03 ± 0.043
TDQSTEEEKSVDASPND [CSL4],2.88 ± 0.2,2.8 ± 0.21,,3.06 ± 0.17
TDSSALTYDRLEFATIR [PRE9],3.07 ± 0.081,3.27 ± 0.076,3.01 ± 0.056,3.18 ± 0.045
TDSWESFFVSVRKAITV [FAS1],2.76 ± 0.27,2.4 ± 0.17,,
TEEKCKNFIESESVGAF [YJL039C/NUP192],3.43 ± 0.15,3.23 ± 0.088,3.33 ± 0.062,3.47 ± 0.056
TEFSKNDLEVGVATKDK [SCL1],2.95 ± 0.079,3.03 ± 0.068,2.63 ± 0.088,2.71 ± 0.075
TEGRSRDGGLRLGEMER [RET1],1.35 ± 0.081,1.82 ± 0.12,1.49 ± 0.28,1.58 ± 0.071
TEHLTELSDNEENFEAT [YCG1],2.87 ± 0.14,3.15 ± 0.16,3.54 ± 0.099,2.96 ± 0.12
TEKLKISPESVFGTLGE [SMC3],1.99 ± 0.087,2.34 ± 0.066,2.09 ± 0.095,1.99 ± 0.032
TEKMEEQLDLLSAILDP [MED11],3.14 ± 0.087,3 ± 0.1,3.13 ± 0.12,3.4 ± 0.1
TELRQLFQENDDDDDDD [DSN1],2.03 ± 0.063,2.36 ± 0.071,2.24 ± 0.11,2.38 ± 0.092
TENEKFISYHDKYLCML [NUT1],2.91 ± 0.056,3 ± 0.055,3.23 ± 0.049,3.11 ± 0.053
TEQIKMRILSNDITNLQ [SRB8],2.33 ± 0.042,2.31 ± 0.037,2.15 ± 0.043,2.16 ± 0.029
TETSNEDEDEDDETPSC [SNU114],2.68 ± 0.067,2.75 ± 0.058,3.02 ± 0.055,2.74 ± 0.046
TEVIIRATRTQDVLGEN [RPS3],3.42 ± 0.26,2.92 ± 0.12,3.14 ± 0.13,3.35 ± 0.079
TEVRAEDEAALAKLVST [RPL8A],2.9 ± 0.062,2.93 ± 0.06,2.59 ± 0.055,2.74 ± 0.048
TEYFENKQSVSNLSPDL [DSN1],3.48 ± 0.13,3.4 ± 0.1,3.34 ± 0.089,3.58 ± 0.058
TFENINSLFYLKWSACT [IRR1],1.26 ± 0.082,1.35 ± 0.082,1.27 ± 0.17,1.21 ± 0.051
TFEQFKDTIVKEAEDKT [RPC37],,,,2.43 ± 0.29
TFHHHGRQTVLIKDNSA [SRB2],1.92 ± 0.25,2.52 ± 0.21,,2.56 ± 0.24
TFIYGYCDKNFRENMSK [PRE3],2.12 ± 0.079,2.17 ± 0.066,2.21 ± 0.092,2.65 ± 0.053
